Source: the domain aggregation screens of Martell et al. (2025)

Test: soluble fraction after stress (log2 fold change); higher = more stays soluble; pooled small domains, quantitative proteomics
Conditions: stress: 50 degC
In short: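 Each library was heated to 50°C as a stress step. The libraries, made up of small protein domains, were pooled and analysed at high throughput by quantitative proteomics. The reported value is the base-two logarithm of the fold change in each protein's soluble amount after stress, taken as a measure of aggregation propensity. The higher the value, the more protein stays in solution.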

Row | Sequence | soluble fraction (log2)
1 | HMQPADYSDLYAAAKSAGEADMRAAFALTDKQERTAAVNAARETIKAALSEEQLADANLGSALKKLEAGV | -0.337
2 | HMLHMKAALGELMSIPGMRSELAGTLFDRGYTSLAQLRAATLDDLERVNGLERADARRIHDFLRKS | -0.0753
3 | HMRLLAESIARGLDPEGSGGLWAKEAGAEALKLMETLAAEAPHGGSFTAAAYRDLFESLVHQGEVREA | 0.0472
4 | HMDIINLADNIARLRRRRQITQEELADYLGVTKAAVSKWENRQTMPDILLLPRLAGLFEVTIDELVGY | -1.42
5 | HMSDTVDITKLGIAGKTKEAAEALLKENGFSVESKEENSDTIEKGKVISYSPTKPKNGDRITLIVSSGKK | 0.0915
6 | HMHDYNTIVGVIEMRDKNIPLTSIRQRYGIGYSGIDLILTRYKDSGLTLKEFLALDPSQAEELIYPPK | -0.622
7 | HMGDPVRVDKFLHDMNVGTRSQIRKLIKEKAVFVNDVVAKSGRVKVDPVVDQVRLGEQVITYQ | -0.115
8 | HMQPDYRVLYSNFSDKDGGAIVAALEKMNVPYKFSEGGSAILVPAGQVHQARLKLAADGLPK | 0.0409
9 | HMASMEDILAEAKTKFQEGDLFKSVNEGIQGTHKLTLPLRIKESRIVDASGAAVYREGIWATVDK | 0.108
10 | HMDSDMGQQLKTLLTVGTFMSSKELKAIAQQLGLKKPTDLKEWVELESGTQRIEGKPTKGYWIKMNDINN | 0.159
11 | HMSAAPVGPWALSEFLDAVEKDSVERVTFDDAGKALVAVDADGGRHRVEILPSEGPEILAALRKHSVQFA | 0.0953
12 | HMQNNWFYEENGQRKGPVSENEMVQFIKSSVISHGTSVWKQGFPDWLKVENTDLRVHLDNSAP | 0.136
13 | HMFKLPRTIGTFEDSDVVIGAGKFGPYIMHNKKFVSLPKSEDPLTIGLERAIELISAKREQEKQRH | 0.284
14 | HMENEIVMPVQINGKKRGDLTIARDADQASIQKAVLELDFVKAALNGGSPKKVIVVPQRIVNVV | 0.325
15 | HMTTGGAEELGRTERKIVEQVGRGLSNREIAQVLGLSEGTVRNYLSTILGKLGLRDRTQLAIWSVQTGFAA | 0.197
16 | HMSRLLRTDAHLQYAAERGLPVTASAYTPVFAGAKQYTGRIESFDAQTIRFADGPAVERKAVARLEAE | 0.159
17 | HMDEQVETLKNLISELPKEQLEVLVMRHYEDLSFKEISEKTGVSINTALGRMRYALINIRKLMKENN | -0.223
18 | HMNSSLFLARQVHALRKKAGLTLQQLSRKSDVSVSTLSKIEKGQLSPTYEKIVSLARGLDVPIAALFHE | -0.976
19 | HMGIAFDYDAGRFDQVPPNLVEKWQQAYPAVDVLSELRRMEAWASANPVNRKSNWQRFIVNWLTRAQDRAG | -0.215

Row | Sequence | soluble fraction (log2)
20 | HMEGNLVEIFEDAFGRTMSTMDIEYINQFKRTGYDDEMIVSALREAVKSNALSFRYIERVLENWAHS | -0.202
21 | HMGNASQAARRQRIVDAALELLQDRPYDQIQMRDVAEGAGVALGTLYRYFPSKEQLFAHVLVE | 0.027
22 | HMYRWSEEIFEKLRSDIMAALDLSREQNDEEIYRFIETEVEEYSQNNLLTLKEREQLEHLLFNSL | -1.3
23 | HMLDLVSIGKRIKAERQKNGLTQEALAERIEVSAHYVYELERGLKAMSVPILLRMSEVLHTSTDYLLF | -2.9
24 | HMRQKTTFFATESFELPNGEKVEEGQIFRLNDGAFNIAEQQGITRFLTSEANYGRMIAANAEVEKAKLDA | 0.268
25 | HMSTISPNAFNFLQQNLNKFSDDAEGKMIKDILSKTTYDEYVKNEKSKTDFNSLLRRQTTTGDDNLNRYIN | 0.0247
26 | HMPSLNDRPDDVLYLFSYFLQSFSHRQVSLPKILKKALIQHDWWGNIRELHSVALRYYIFGDTLNGAYDSL | -1.3
27 | HMQVTPQVLRLLDVLGDKELSLRQIAEALGLSDRKNIMRNYVVPALDSGRVVRTVPNKPNSRFQKYRK | -0.404
28 | HMEGEVVESPLVGVAYLASGPDKPAFVQVGDSVSKGQTLLIIEAMKVMNEVPAPRDGIVTEILV | 0.0266
29 | HMSMPDERMLTSWMMARVKAAGKTMTRDAWNEFFERSNDSMDHMDMEMEKLLSYVYDKDGITLEDVEA | -0.394
30 | HMSLLLTPREASVWASEYLGKKVTSNNIIYLLNYGKIANHSTDLKENLIDKNELKIYYDSTIKSQKH | -0.216
31 | HMQDYISAEEAKSAALSASQVDSAGAAFSAAELGEKNGIPYYEVAFTADGLEYRYAIDAQTGTVIESSSSG | 0.0366
32 | HMDSSALEPIVDQIIADNPKQVEQFQAGKTKVLGFFVGQVMKQTDGTANPKQVNELVAARLKSA | 0.181
33 | HMSGTFIGGELVKPGEPLTPMQRAAITMGLQMGNTYSPEIMEKYNNAGGSPSKEEFENYQKNKS | 0.101
34 | HMAAENAVGARVKALREAMDLSLRDLSERSGVSPTMLSQVERGSTSPTLAVAEKIAAGLDLSLSQLLRL | -0.0179
35 | HMVVKSPLEMAFDKFREMRKKIRKPMTERAEELIWKELSKLAGEDSDLKIEILEQSIRNGWQDVYAVK | -0.265
36 | HMANYTVNAYNNGGTGGSVNMRSGPSTNDGIVVRVPHGATVTGTKSGTWSYMTYNTYTGYMMSVYLDEQS | -0.157
37 | HMAKNIEVPNLVGSTISVARNDLKQLGLHVIVRDSVWSEDKKIDTILEQFPEPGKKLKPEGVVQVVVSI | -0.408
38 | HMRDKSITFSEFVKLLDEGQIQKVTLTGNEILGTQKSGDKFRTYAPPQYEGLGNKLVERSVEVTAKE | 0.207
